B1: PBXIP1 (parent)
chain: LPVETLGPASRMDPESERALQAPH
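Also: lentivirally expressed fusions sorted by FACS into six bins by GFP to DsRed ratio, PSI derived from sequencing read proportions per bin multiplied by bin number.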

This data set covers variants of B1. The experiment in a line: protein stability index of a GFP-peptide fusion (GPS, HEK-293T) (PSI 1-6); higher = more stable. The conditions noted are these: c terminus: a fixed tail appended.
In the case of LPVETLGPASRMLPESERALQAPH [D13L], the protein stability index was found to be 3.75.

As for LPVETLGPASRMHPESERALQAPH [D13H], the protein stability index came out at 3.83. Next, LPVETLGPASRMMPESERALQAPH [D13M]: 4.11.

Regarding LPVETLGPASRMIPESERALQAPH [D13I], the protein stability index amounted to 4.61. On to LPVETLGPASRMRPESERALQAPH [D13R], for which the protein stability index is 2.62. As for LPVETLGPASRMTPESERALQAPH [D13T], the protein stability index was found to be 4.28. For LPVETLGPASRMPPESERALQAPH [D13P], the protein stability index worked out at 4.13.

On to LPVETLGPASRMQPESERALQAPH [D13Q], for which the protein stability index worked out at 3.7.

Consider LPVETLGPASRMYPESERALQAPH [D13Y], for which the protein stability index came to 3.73.

In the case of LPVETLGPASRMEPESERALQAPH [D13E], the protein stability index was determined as 4.66. LPVETLGPASRMVPESERALQAPH [D13V]: the protein stability index was 4.38. Under LPVETLGPASRMAPESERALQAPH [D13A] stands 4.61; under LPVETLGPASRMGPESERALQAPH [D13G], 4.41.

With LPVETLGPASRMFPESERALQAPH [D13F], the protein stability index worked out at 4.48. In the case of LPVETLGPASRMSPESERALQAPH [D13S], the protein stability index worked out at 3.88. Take LPVETLGPASRMKPESERALQAPH [D13K]: the protein stability index was 3.98. Next, LPVETLGPASRMCPESERALQAPH [D13C]: 3.64. On to LPVETLGPASRMNPESERALQAPH [D13N], for which the protein stability index amounted to 4.66. LPVETLGPASRMWPESERALQAPH [D13W]: the protein stability index is 3.71. Turning to LPVETLGPAVRMDPESERALQAPH [S10V], the protein stability index worked out at 4.44. On to LPVETLGPARRMDPESERALQAPH [S10R], for which the protein stability index was found to be 4.99.

On to LPVETLGPAWRMDPESERALQAPH [S10W], for which the protein stability index amounted to 4.4. On to LPVETLGPAFRMDPESERALQAPH [S10F], for which the protein stability index stood at 3.75. As to LPVETLGPAHRMDPESERALQAPH [S10H], the protein stability index amounted to 4.2. For LPVETLGPAIRMDPESERALQAPH [S10I], the protein stability index is 3.95. On to LPVETLGPACRMDPESERALQAPH [S10C], for which the protein stability index was 4.24. Under LPVETLGPAMRMDPESERALQAPH [S10M] stands 4.3; under LPVETLGPADRMDPESERALQAPH [S10D], 4.92.

For the variant LPVETLGPANRMDPESERALQAPH [S10N], the protein stability index stood at 5.01. Under LPVETLGPAARMDPESERALQAPH [S10A] stands 5.14. For LPVETLGPATRMDPESERALQAPH [S10T], the protein stability index was determined as 4.78. For the variant LPVETLGPAERMDPESERALQAPH [S10E], the protein stability index came to 5.28.

As for LPVETLGPAYRMDPESERALQAPH [S10Y], the protein stability index was 3.85.

On to LPVETLGPAQRMDPESERALQAPH [S10Q], for which the protein stability index stood at 4.88. Regarding LPVETLGPAGRMDPESERALQAPH [S10G], the protein stability index amounted to 4.47. In the case of LPVETLGPAKRMDPESERALQAPH [S10K], the protein stability index is 5.32. Under LPVETLGPALRMDPESERALQAPH [S10L] stands 3.53. LPVETLGPASRSDPESERALQAPH [M12S]: the protein stability index came to 4.11. Under LPVETLGPASRTDPESERALQAPH [M12T] stands 4.45. Under LPVETLGPASRQDPESERALQAPH [M12Q] stands 4.89; under LPVETLGPASRRDPESERALQAPH [M12R], 4.33. Take LPVETLGPASRNDPESERALQAPH [M12N]: the protein stability index is 4.41. With LPVETLGPASRDDPESERALQAPH [M12D], the protein stability index came to 4.95.

As to LPVETLGPASRVDPESERALQAPH [M12V], the protein stability index came to 4.34. In the case of LPVETLGPASRWDPESERALQAPH [M12W], the protein stability index was determined as 4.17. On to LPVETLGPASRFDPESERALQAPH [M12F], for which the protein stability index stood at 4.15. LPVETLGPASRLDPESERALQAPH [M12L]: the protein stability index was found to be 4.04. Under LPVETLGPASRHDPESERALQAPH [M12H] stands 4.11; under LPVETLGPASRCDPESERALQAPH [M12C], 4.32; under LPVETLGPASRIDPESERALQAPH [M12I], 4.5. Next, LPVETLGPASREDPESERALQAPH [M12E]: 4.46. As to LPVETLGPASRKDPESERALQAPH [M12K], the protein stability index is 5.34. Turning to LPVETLGPASRGDPESERALQAPH [M12G], the protein stability index stood at 4.4. Next, LPVETLGPASRPDPESERALQAPH [M12P]: 4.35; LPVETLGPASRADPESERALQAPH [M12A]: 4.31.

As for LPVETLGPASRYDPESERALQAPH [M12Y], the protein stability index is 4.09. Regarding LPVETLGKASRMDPESERALQAPH [P8K], the protein stability index was found to be 4.39. Turning to LPVETLGDASRMDPESERALQAPH [P8D], the protein stability index was 5.46.

As for LPVETLGRASRMDPESERALQAPH [P8R], the protein stability index stood at 4.73.

Take LPVETLGWASRMDPESERALQAPH [P8W]: the protein stability index came out at 4.01. LPVETLGFASRMDPESERALQAPH [P8F]: the protein stability index amounted to 4.19. On to LPVETLGVASRMDPESERALQAPH [P8V], for which the protein stability index is 4.83. LPVETLGNASRMDPESERALQAPH [P8N]: the protein stability index was determined as 5.28. As for LPVETLGYASRMDPESERALQAPH [P8Y], the protein stability index turned out to be 4.67. As to LPVETLGLASRMDPESERALQAPH [P8L], the protein stability index was 4.99.

As to LPVETLGSASRMDPESERALQAPH [P8S], the protein stability index came out at 4.64. Next, LPVETLGMASRMDPESERALQAPH [P8M]: 4.16; LPVETLGEASRMDPESERALQAPH [P8E]: 5.52. Under LPVETLGAASRMDPESERALQAPH [P8A] stands 5.03. Turning to LPVETLGIASRMDPESERALQAPH [P8I], the protein stability index was determined as 4.89. LPVETLGGASRMDPESERALQAPH [P8G]: the protein stability index amounted to 5.57.

On to LPVETLGCASRMDPESERALQAPH [P8C], for which the protein stability index was 5.37. Turning to LPVETLGQASRMDPESERALQAPH [P8Q], the protein stability index came to 5.1. Under LPVETLGHASRMDPESERALQAPH [P8H] stands 4.51; under LPVETLGTASRMDPESERALQAPH [P8T], 5.31; under LPVETTGPASRMDPESERALQAPH [L6T], 5.37. With LPVETGGPASRMDPESERALQAPH [L6G], the protein stability index came to 4.71.

As to LPVETPGPASRMDPESERALQAPH [L6P], the protein stability index worked out at 5.41.

Consider LPVETMGPASRMDPESERALQAPH [L6M], for which the protein stability index is 5.3.

As to LPVETNGPASRMDPESERALQAPH [L6N], the protein stability index was 5.42. With LPVETYGPASRMDPESERALQAPH [L6Y], the protein stability index amounted to 5.53. Turning to LPVETCGPASRMDPESERALQAPH [L6C], the protein stability index is 4.55.

For LPVETRGPASRMDPESERALQAPH [L6R], the protein stability index was 5.28. As for LPVETVGPASRMDPESERALQAPH [L6V], the protein stability index was 4.45.

Turning to LPVETAGPASRMDPESERALQAPH [L6A], the protein stability index is 5.19. Under LPVETHGPASRMDPESERALQAPH [L6H] stands 5.09. Next, LPVETWGPASRMDPESERALQAPH [L6W]: 4.72; LPVETSGPASRMDPESERALQAPH [L6S]: 5.44. In the case of LPVETDGPASRMDPESERALQAPH [L6D], the protein stability index was determined as 5.48.

With LPVETKGPASRMDPESERALQAPH [L6K], the protein stability index came out at 5.03. Under LPVETEGPASRMDPESERALQAPH [L6E] stands 5.21; under LPVETQGPASRMDPESERALQAPH [L6Q], 5.78. Regarding LPVETIGPASRMDPESERALQAPH [L6I], the protein stability index was determined as 3.73. LPVETFGPASRMDPESERALQAPH [L6F]: the protein stability index turned out to be 4.81.

Source of the values: the supplement of paper PMC10567573.
